These results are taken from US20220332804A1 (CSL INNOVATION, published 2022).

Holding throughout (test): SPR, antibody captured, C2 as analyte;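 further: biacore SPR at 37 °C, anti-C2 mAbs captured via goat anti-human IgG on CM5 chips, double-referenced sensorgrams fit to a 1:1 kinetic or steady-state model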
Assay [1] deals with T1, human C2 S278A (human, UniProt P06681 21-752).
T1 sequence: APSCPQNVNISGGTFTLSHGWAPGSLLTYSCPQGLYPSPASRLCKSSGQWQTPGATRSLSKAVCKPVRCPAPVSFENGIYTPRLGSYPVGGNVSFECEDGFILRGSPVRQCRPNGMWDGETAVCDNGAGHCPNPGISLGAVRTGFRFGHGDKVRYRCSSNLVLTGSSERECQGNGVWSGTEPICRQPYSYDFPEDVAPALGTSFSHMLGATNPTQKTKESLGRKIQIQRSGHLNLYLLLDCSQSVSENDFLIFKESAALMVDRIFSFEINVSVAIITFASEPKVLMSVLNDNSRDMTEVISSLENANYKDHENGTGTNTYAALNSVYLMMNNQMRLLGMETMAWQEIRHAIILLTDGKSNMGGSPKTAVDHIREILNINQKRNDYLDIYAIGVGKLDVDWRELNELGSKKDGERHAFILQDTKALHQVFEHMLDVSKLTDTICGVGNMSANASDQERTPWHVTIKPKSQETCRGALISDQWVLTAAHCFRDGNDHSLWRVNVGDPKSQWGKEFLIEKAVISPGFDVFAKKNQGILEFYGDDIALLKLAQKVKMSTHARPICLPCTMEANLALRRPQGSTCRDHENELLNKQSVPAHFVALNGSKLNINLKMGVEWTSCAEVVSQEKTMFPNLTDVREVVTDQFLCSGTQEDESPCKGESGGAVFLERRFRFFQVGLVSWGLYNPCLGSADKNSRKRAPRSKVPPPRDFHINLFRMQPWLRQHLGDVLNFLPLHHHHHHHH

Assay [2] deals with T2, human C2 E686A (human, UniProt P06681 21-752).
T2 sequence: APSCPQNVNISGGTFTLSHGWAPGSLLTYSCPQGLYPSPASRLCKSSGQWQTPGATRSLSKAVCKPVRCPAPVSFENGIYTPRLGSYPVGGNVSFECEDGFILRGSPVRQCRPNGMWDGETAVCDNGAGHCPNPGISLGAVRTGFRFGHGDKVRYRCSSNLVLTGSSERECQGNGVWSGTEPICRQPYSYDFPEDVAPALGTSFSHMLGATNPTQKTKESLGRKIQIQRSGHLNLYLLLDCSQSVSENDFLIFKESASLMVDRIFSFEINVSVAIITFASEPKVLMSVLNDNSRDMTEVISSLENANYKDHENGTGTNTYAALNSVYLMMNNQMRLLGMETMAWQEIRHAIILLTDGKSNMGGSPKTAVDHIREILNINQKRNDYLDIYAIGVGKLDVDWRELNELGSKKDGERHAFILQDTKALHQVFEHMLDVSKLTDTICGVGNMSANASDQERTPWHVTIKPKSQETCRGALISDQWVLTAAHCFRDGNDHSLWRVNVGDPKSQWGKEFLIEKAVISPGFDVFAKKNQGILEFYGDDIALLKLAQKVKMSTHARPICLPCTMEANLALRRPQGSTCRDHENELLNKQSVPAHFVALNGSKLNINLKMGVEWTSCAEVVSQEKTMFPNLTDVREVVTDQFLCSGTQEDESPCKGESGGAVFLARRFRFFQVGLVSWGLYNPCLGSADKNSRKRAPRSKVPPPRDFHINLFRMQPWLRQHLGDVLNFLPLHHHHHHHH

The target in assay [3] is T3, human C2 Y558A (human, UniProt P06681 21-752).
T3 sequence: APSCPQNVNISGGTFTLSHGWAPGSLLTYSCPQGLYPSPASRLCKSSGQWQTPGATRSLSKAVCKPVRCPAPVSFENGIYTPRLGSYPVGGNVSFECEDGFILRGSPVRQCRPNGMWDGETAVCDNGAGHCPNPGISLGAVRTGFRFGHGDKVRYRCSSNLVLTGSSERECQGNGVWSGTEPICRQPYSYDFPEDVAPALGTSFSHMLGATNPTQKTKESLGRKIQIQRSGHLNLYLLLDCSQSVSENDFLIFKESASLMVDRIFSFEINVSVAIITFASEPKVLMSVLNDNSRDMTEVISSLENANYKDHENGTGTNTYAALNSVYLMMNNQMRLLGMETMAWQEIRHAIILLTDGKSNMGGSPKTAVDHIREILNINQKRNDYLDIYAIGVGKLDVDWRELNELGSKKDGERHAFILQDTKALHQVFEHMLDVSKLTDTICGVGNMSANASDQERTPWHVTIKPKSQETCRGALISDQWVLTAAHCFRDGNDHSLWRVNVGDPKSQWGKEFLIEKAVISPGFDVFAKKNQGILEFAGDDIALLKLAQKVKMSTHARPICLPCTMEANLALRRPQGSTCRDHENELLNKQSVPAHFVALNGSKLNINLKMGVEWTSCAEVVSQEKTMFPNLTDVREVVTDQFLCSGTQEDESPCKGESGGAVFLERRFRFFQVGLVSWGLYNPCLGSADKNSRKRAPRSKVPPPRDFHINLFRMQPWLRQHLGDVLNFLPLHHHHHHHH

Assay [4] concerns the target T4, human C2 R714A (human, UniProt P06681 21-752).
T4 sequence: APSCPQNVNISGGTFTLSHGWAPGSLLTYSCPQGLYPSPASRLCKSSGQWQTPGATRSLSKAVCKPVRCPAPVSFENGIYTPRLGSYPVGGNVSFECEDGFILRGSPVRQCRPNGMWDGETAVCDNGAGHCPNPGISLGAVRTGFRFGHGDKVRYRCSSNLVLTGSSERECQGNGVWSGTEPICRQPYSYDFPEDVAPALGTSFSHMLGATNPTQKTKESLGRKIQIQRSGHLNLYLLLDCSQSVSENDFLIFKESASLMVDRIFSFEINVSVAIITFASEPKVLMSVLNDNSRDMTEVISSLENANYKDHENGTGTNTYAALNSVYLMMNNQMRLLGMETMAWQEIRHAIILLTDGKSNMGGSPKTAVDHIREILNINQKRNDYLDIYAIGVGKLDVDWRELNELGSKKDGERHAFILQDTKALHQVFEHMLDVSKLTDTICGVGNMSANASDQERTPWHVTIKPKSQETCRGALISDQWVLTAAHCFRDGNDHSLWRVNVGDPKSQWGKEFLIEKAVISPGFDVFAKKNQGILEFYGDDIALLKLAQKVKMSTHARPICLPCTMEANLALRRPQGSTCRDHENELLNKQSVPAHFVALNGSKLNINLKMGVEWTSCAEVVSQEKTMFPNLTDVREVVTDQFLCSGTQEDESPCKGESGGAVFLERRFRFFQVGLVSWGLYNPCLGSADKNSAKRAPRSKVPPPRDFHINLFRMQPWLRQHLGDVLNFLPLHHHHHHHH

B1: RF16-226 (antibody, human IgG4 S228P, lambda)
heavy: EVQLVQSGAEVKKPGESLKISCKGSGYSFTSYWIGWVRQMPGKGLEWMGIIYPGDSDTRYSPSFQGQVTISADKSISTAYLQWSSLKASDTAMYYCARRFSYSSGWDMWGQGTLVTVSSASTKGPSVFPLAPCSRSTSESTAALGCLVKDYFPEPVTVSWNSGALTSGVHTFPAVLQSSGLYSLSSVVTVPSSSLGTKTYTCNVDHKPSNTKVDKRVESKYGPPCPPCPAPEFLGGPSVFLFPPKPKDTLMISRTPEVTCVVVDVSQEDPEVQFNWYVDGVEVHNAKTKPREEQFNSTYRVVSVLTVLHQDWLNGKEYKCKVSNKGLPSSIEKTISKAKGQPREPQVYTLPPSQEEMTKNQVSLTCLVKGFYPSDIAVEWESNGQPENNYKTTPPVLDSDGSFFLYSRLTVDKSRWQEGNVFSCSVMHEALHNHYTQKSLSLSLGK
light: SYELTQPPSVSVSPGQTARITCSGDALTSKYVAWYQQKSGLAPLLVIYEDTRRPSGIPAKFSGSSSGSVATLTISGAHGDDEADYYCYSTDASGHQRVFGGGTKLTVLSQPKAAPSVTLFPPSSEELQANKATLVCLISDFYPGAVTVAWKADGSPVKAGVETTKPSKQSNNKYAASSYLSLTPEQWKSHRSYSCQVTHEGSTVEKTVAPTECS
notes: pH-dependent anti-C2 antibody from a phage display library; also called WT
A word on the Kd: it is the constant that tells how readily two partners part at equilibrium. Higher therefore signals weaker binding. B1: the Kd in assay [1] was 9.4 nM; in assay [2] it was 47.3 nM; in assay [3], 158 nM; in assay [4] it was 53 nM.
